Changes are numbered by the printed parent chain.
B1: Anti-BCMA-E6-PP02-D2 FAB (Fab, V domains shown)
VH: EVQLLESGGGLVQPGGSLRLSCAASGFTFSYYAMTWVRQAPGKGLEWVSTISQQNEQTKYADSVKGRFTISRDNSKNTLYLQMNSLRAEDTAVYYCARSPYSYLHGYYGFDYWGQGTLVTVSS
VL: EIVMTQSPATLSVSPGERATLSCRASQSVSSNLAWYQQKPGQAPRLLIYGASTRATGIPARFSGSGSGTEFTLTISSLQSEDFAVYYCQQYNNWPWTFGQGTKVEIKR
notes: Fab
B2: Anti-BCMA-E6-PP02-B1 FAB (Fab, V domains shown)
VH: B1 VH with I51V, Q54A, N55G, E56Y, Q57D
VL: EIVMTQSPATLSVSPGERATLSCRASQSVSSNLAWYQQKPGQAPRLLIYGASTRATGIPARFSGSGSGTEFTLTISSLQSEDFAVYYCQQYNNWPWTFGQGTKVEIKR
notes: Fab; also called anti-BCMA-E6-B1; E6-B1
B3: Anti-BCMA-E6-PP02-B4 FAB (Fab, V domains shown)
VH: B1 VH with Q54P, N55G, E56F, Q57D, T58A
VL: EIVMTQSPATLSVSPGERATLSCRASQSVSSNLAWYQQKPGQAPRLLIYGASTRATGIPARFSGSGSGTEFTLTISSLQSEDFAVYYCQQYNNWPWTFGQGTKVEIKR
notes: Fab
B4: Anti-BCMA-E6-PP02-A3 FAB (Fab, V domains shown)
VH: B1 VH with Q53S, E56D, Q57I
VL: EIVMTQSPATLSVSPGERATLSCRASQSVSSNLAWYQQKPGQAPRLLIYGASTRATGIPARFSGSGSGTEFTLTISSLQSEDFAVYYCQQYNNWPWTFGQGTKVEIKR
notes: Fab
B5: Anti-BCMA-E6-PP02-E6 FAB (Fab, V domains shown)
VH: B1 VH with Q54A, N55G, E56R, Q57D, T58F
VL: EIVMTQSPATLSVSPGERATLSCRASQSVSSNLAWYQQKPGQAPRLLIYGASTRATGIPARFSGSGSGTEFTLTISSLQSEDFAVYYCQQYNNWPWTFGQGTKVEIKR
notes: Fab; also called anti-BCMA-E6-E6; E6-E6
B6: Anti-BCMA-E6-PP02-F7 FAB (Fab, V domains shown)
VH: B1 VH with S52G, Q54R, N55G, E56F
VL: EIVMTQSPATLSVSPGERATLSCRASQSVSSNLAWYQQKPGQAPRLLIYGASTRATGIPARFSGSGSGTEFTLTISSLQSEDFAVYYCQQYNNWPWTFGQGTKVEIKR
notes: Fab
B7: Anti-BCMA-E6-PP02-C7 FAB (Fab, V domains shown)
VH: B1 VH with Q54S, N55G, E56L, Q57V, T58P
VL: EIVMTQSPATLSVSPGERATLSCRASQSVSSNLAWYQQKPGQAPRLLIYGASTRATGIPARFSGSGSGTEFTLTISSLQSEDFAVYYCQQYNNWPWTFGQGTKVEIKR
notes: Fab
B8: Anti-BCMA-D3-MP04-C8b FAB (Fab, V domains shown)
VH: EVQLVESGGGLIQPGGSLRLSCAASGFIFSHYEMNWVRQAPGKGLEWVSAIGQIGFGTLYADNVKGRFTISRDNSKNTLYLQMNSLRAEDTAVYYCARVPYSYSGYSGADIWGQGTLVTVSS
VL: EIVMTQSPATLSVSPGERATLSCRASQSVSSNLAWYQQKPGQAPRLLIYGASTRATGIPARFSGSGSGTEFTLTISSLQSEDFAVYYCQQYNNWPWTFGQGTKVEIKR
notes: Fab
B9: Anti-BCMA-D3-MP04-D4 FAB (Fab, V domains shown)
VH: B8 VH with I54V, F56G, G57N, L59V, N63S
VL: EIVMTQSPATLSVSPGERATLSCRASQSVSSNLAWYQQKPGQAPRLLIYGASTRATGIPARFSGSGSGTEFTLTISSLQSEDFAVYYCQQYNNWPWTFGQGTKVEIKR
notes: Fab
B10: Anti-BCMA-D3-MP04-E11 FAB (Fab, V domains shown)
VH: B8 VH with I54L, F56G, G57N, L59V, N63S
VL: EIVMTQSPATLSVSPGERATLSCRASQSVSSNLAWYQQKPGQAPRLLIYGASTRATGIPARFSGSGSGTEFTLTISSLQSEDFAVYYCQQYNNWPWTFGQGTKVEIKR
notes: Fab; also called anti-BCMA-D3-E11; D3-E11
B11: Anti-BCMA-D3-MP04-B11a FAB (Fab, V domains shown)
VH: EVQLVESGGGLIQPGGSLRLSCAASGFIFSHYEMNWVRQAPGKGLEWVSAIGQVDGEVYADSVKGRFTISRDNSKNTLYLQMNSLRAEDTAVYYCARVPYSYSGYSGADIWGQGTLVTVSS
VL: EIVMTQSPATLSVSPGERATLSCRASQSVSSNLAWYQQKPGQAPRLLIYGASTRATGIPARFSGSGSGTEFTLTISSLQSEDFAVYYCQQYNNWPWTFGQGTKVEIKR
notes: Fab
B12: Anti-BCMA-D3-MP04-F3 FAB (Fab, V domains shown)
VH: B11 VH with D55G, G56N, E57T
VL: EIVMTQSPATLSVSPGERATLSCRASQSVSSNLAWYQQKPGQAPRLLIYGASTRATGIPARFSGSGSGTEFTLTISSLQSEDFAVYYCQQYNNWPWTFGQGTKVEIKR
notes: Fab
B13: Anti-BCMA-D3-MP04-B11b FAB (Fab, V domains shown)
VH: B11 VH with G56A
VL: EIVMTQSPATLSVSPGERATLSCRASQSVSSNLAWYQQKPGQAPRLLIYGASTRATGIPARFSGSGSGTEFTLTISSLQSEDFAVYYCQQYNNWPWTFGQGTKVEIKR
notes: Fab
B14: Anti-BCMA-D3-MP04-B11c FAB (Fab, V domains shown)
VH: B11 VH with D55E
VL: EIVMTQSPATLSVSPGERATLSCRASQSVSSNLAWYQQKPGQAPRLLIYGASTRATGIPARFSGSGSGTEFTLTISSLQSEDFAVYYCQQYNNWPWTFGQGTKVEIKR
notes: Fab
B15: Anti-BCMA-D3-MP05-F4 FAB (Fab, V domains shown)
VH: B11 VH with V54G, D55G, G56N, E57T, S103L, S106Q
VL: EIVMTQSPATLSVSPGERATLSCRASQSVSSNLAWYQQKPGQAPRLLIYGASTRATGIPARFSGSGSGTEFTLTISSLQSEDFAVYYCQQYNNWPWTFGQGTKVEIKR
notes: Fab
B16: Anti-BCMA-D3-MP04-G7 FAB (Fab, V domains shown)
VH: B11 VH with V54R, E57T
VL: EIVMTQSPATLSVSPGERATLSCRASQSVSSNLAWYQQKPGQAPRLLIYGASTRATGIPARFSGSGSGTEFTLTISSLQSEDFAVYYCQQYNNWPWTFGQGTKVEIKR
notes: Fab
B17: Anti-CD38-E2-UCP01-A10 FAB (Fab, V domains shown)
VH: QVQLVQSGAEVKKPGSSVKVSCKASGLPDATYAIGWVRQAPGQGLEWMGRIIPVFGSAHYAQKFQGRVTITADESTSTAYMELSSLRSEDTAVYYCARGLGYYLYSSYYFDIWGQGTLVTVSS
VL: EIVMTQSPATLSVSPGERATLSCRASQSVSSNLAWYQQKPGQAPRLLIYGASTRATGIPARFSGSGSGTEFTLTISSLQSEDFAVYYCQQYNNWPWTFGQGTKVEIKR
notes: Fab
B18: Anti-CD38-E2-UCP02-E7 FAB (Fab, V domains shown)
VH: B17 VH with L27G, P28S, D29F, A30S, T31N, V54A, F55L, G56A, S57A, A58T
VL: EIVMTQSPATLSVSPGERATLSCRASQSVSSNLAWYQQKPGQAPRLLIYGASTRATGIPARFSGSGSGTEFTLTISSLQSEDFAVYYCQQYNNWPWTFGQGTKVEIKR
notes: Fab
B19: Anti-CD38-E2-UCP02-F8 FAB (Fab, V domains shown)
VH: B17 VH with L27G, P28S, D29F, A30S, T31N, V54S, F55L, G56D, S57A, A58G
VL: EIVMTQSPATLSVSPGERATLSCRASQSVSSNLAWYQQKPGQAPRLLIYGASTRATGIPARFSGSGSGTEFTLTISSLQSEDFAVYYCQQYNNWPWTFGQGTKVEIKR
notes: Fab
B20: Anti-CD38-E2-UCP02-D6 FAB (Fab, V domains shown)
VH: B17 VH with L27G, P28S, D29F, A30S, T31N, V54R, F55L, G56D, S57A, A58E
VL: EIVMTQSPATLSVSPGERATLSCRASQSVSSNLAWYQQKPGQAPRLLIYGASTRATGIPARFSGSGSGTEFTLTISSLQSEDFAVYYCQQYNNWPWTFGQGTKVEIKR
notes: Fab
B21: Anti-CD38-E2-UCP02-F3 FAB (Fab, V domains shown)
VH: B17 VH with L27G, P28S, D29F, A30S, T31N, F55L, G56D, S57A
VL: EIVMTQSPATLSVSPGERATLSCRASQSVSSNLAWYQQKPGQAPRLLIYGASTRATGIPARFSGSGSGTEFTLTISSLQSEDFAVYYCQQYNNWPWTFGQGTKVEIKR
notes: Fab
B22: Anti-CD38-E2-UCP02-G8 FAB (Fab, V domains shown)
VH: B17 VH with L27G, P28S, D29F, A30S, T31N, V54A, F55L, S57G, A58V
VL: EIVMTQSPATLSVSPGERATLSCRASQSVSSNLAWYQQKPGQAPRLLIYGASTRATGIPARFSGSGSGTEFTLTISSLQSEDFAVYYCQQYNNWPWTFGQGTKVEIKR
notes: Fab
B23: Anti-CD38-E2-UCP02-A5 FAB (Fab, V domains shown)
VH: B17 VH with L27G, P28S, D29F, A30S, T31N, V54D, F55L, S57A
VL: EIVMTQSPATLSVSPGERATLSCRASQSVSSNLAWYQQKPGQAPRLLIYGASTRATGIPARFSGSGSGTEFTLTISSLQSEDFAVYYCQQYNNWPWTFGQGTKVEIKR
notes: Fab; also called anti-CD38-E2-A5; E2-A5
B24: Anti-CD38-B3-PP11-A2 FAB (Fab, V domains shown)
VH: QVQLVQSGAEVKKPGSSVKVSCKASGQTTPMYSISWVRQAPGQGLEWMGRIIPTGANANYAQKFQGRVTITADESTSTAYMELSSLRSEDTAVYYCARSWPSLGSGWFDIWGQGTLVTVSS
VL: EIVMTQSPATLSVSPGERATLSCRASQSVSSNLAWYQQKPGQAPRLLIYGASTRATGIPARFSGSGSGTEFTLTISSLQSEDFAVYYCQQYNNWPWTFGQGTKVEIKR
notes: Fab
B25: Anti-CD38-B3-PP11-D11a FAB (Fab, V domains shown)
VH: B24 VH with Q27G, T28D, T29F, P30T, M31L, S102I, S105N
VL: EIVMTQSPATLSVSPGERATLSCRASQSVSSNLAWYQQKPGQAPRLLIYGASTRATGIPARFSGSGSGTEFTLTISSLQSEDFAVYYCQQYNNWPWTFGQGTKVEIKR
notes: Fab
B26: Anti-CD38-B3-PP11-H1a FAB (Fab, V domains shown)
VH: B24 VH with T28N, T29E, P30R
VL: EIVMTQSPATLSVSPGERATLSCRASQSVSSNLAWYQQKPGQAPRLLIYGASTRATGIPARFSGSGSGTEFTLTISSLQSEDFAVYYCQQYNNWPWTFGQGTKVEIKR
notes: Fab
B27: Anti-CD38-B3-PP11-H10 FAB (Fab, V domains shown)
VH: B24 VH with Q27G, T28D, T29F, P30T, M31L, S102H, L103Y
VL: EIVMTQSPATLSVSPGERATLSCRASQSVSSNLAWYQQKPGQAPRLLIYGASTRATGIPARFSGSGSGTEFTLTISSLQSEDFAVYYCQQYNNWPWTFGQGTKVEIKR
notes: Fab
B28: Anti-CD38-B3-PP11-E1 FAB (Fab, V domains shown)
VH: B24 VH with T28H, T29K, P30R, M31V
VL: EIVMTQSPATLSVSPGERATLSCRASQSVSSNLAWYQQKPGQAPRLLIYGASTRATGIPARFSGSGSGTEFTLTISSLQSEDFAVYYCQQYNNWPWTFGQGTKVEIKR
notes: Fab
B29: Anti-CD38-B3-PP11-E11 FAB (Fab, V domains shown)
VH: B24 VH with Q27G, T28D, T29F, P30T, M31L, L103Y, S105K
VL: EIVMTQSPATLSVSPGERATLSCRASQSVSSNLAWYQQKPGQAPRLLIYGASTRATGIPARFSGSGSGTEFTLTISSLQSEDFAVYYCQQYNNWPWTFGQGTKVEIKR
notes: Fab
B30: Anti-CD38-B3-PP11-D1b FAB (Fab, V domains shown)
VH: B24 VH with Q27I, T28Q, P30R, M31W
VL: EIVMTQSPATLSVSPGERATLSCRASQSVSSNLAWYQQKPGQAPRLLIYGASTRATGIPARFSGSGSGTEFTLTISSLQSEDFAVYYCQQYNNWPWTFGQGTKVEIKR
notes: Fab
B31: Anti-CD38-B3-PP11-C11 FAB (Fab, V domains shown)
VH: B24 VH with Q27G, T28D, T29F, P30T, M31L, W100T, S102T, L103Y
VL: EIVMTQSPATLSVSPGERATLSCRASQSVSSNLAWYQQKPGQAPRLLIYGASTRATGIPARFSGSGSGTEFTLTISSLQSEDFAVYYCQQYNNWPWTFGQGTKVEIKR
notes: Fab; also called anti-CD38-B3-C11; B3-C11
B32: Anti-CD38-B3-PP11-D1a FAB (Fab, V domains shown)
VH: B24 VH with Q27M, T28Q, P30R, M31W
VL: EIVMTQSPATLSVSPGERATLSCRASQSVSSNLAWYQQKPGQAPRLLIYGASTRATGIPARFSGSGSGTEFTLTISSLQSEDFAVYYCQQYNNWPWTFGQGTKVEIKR
notes: Fab
B33: anti-BCMA-UCP01-A10 FAB (Fab, V domains shown)
VH: QVQLVQSGAEVKKPGSSVKVSCKASGYVFSDHIISWVRQAPGQGLEWMGGIIPHGGAPTYAQKFQGRVTITADESTSTAYMELSSLRSEDTAVYYCARDLFDYYPQGFDYWGQGTLVTVSS
VL: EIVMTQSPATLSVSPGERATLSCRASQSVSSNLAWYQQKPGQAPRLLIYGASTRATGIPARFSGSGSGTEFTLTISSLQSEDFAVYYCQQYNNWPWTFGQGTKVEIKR
notes: Fab
B34: anti-BCMA-PP02-A3 FAB (Fab, V domains shown)
VH: EVQLLESGGGLVQPGGSLRLSCAASGFTFSQYAMSWVRQAPGKGLEWVSIISQDGGVTVYADSVKGRFTISRDNSKNTLYLQMNSLRAEDTAVYYCARSPYGGGSYIPHDSWGQGTLVTVSS
VL: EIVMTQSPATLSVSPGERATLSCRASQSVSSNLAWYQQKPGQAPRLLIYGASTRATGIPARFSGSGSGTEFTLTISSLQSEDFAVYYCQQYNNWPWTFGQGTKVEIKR
notes: Fab

The binders below were run against T1, human BCMA on cells (NCI-H929, NCI-H929 CD38 KO, MOLP-8) (human, UniProt Q02223 1-184) (assay: flow cytometry, NCI-H929 cells).
T1 construct: whole, on cells; endogenous BCMA of myeloma cell lines
T1 sequence (looked up): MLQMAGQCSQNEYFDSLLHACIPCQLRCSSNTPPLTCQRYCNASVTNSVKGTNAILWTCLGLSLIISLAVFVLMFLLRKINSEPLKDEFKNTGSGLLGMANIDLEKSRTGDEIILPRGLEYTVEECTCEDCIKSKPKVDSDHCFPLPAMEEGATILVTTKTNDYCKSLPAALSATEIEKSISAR

| Binder | Maximum binding (RFI) |
| --- | --- |
| B1 | 36300 |
| B2 | 34700 |
| B3 | 43500 |
| B4 | 40200 |
| B5 | 43200 |
| B6 | 44700 |
| B7 | 38600 |
| B8 | 28300 |
| B9 | 25300 |
| B10 | 31800 |
| B11 | 23700 |
| B12 | 19500 |
| B13 | 23300 |
| B14 | 22900 |
| B15 | 29900 |
| B16 | 27000 |

The binders below were run against T2, recombinant human BCMA Fc fusion protein (Acrobiosystems BC7-H5254 / BCA-H5254) (human, UniProt Q02223 1-54) (assay: SPR, Fab as analyte, captured human BCMA-Fc).
T2 construct: also called recombinant BCMA-Fc protein; not shown: Fc of the bought fusion protein, not described
T2 sequence (looked up): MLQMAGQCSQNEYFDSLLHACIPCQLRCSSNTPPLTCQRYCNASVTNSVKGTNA

| Binder | Kd [nM] |
| --- | --- |
| B8 | 0.03 |
| B9 | 0.02 |
| B10 | 0.01 |
| B11 | 0.14 |
| B12 | 0.64 |
| B13 | 0.52 |
| B14 | 0.16 |
| B15 | 0.78 |
| B16 | 0.08 |

These binders were tested against T1, human BCMA on cells (NCI-H929, NCI-H929 …) (assay: flow cytometry, NCI-H929 cells, one-site fit).

| Binder | Kd [nM] |
| --- | --- |
| B1 | 6.58 |
| B2 | 3.72 |
| B3 | 5.49 |
| B4 | 6.37 |
| B5 | 5.13 |
| B6 | 5.53 |
| B7 | 6.83 |
| B8 | 7.39 |
| B9 | 8.84 |
| B10 | 13.4 |
| B11 | 6.03 |
| B12 | 7.12 |
| B13 | 14.1 |
| B14 | 3.9 |
| B15 | 11.8 |
| B16 | 5.82 |

Each binder was assayed against T3, Biotinylated Human BCMA/TNFRSF17 Protein, His, Avitag (Acrobiosystems BCA-H82E4) (human, UniProt Q02223 1-54, biotinylated) (assay: SPR, Fab as analyte, biotin-captured human BCMA).
T3 construct: bought protein; also called biotinylated recombinant human BCMA protein; hBCMA
T3 sequence (looked up): T2 sequence (looked up)

| Binder | Kd [nM] |
| --- | --- |
| B1 | 0.342 |
| B2 | 0.182 |
| B3 | 0.086 |
| B4 | 0.33 |
| B5 | 0.169 |
| B6 | 0.22 |
| B7 | 0.3 |

These binders were tested against T4, Biotinylated Human CD38 Protein, Avitag, His Tag (Acrobiosystems CD8-H82E7) (human, UniProt P28907 43-300, biotinylated) (assay: SPR, Fab as analyte, biotin-captured human CD38).
T4 construct: bought protein; also called biotinylated recombinant human CD38 protein; human CD38-avi-his

| Binder | Kd [nM] |
| --- | --- |
| B17 | 9.4 |
| B18 | 2.2 |
| B19 | 17.6 |
| B20 | 4.9 |
| B21 | 3.5 |
| B22 | 5.2 |
| B23 | 23.6 |
| B24 | 38.4 |
| B25 | 8.2 |
| B26 | 15.3 |
| B27 | 6.2 |
| B28 | 10.5 |
| B29 | 2 |
| B30 | 5.8 |
| B31 | 5.4 |
| B32 | 10 |

The binders below were run against T5, recombinant cynomolgus monkey BCMA Fc fusion protein (Acrobiosystems BCA-C5253) (cynomolgus monkey, UniProt A0A2K5UD97 1-53) (assay: SPR, Fab as analyte, captured cynomolgus BCMA-Fc).
T5 construct: bought protein; not shown: Fc of the bought fusion protein, not described
T5 sequence (A0A2K5UD97 entry or part of it): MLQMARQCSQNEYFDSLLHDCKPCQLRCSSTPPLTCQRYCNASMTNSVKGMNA

| Binder | Kd [nM] |
| --- | --- |
| B8 | 0.11 |
| B9 | 0.01 |
| B10 | 0.01 |
| B11 | 0.24 |
| B12 | 3.03 |
| B13 | 0.79 |
| B14 | 0.34 |
| B15 | 2.83 |
| B16 | 0.14 |

What follows are binders tested against T6, recombinant cynomolgus monkey CD38-ECD-C-his protein (cynomolgus monkey, UniProt Q5VAN0 45-301) (assay: SPR, Fab as analyte, captured cynomolgus CD38-his).
T6 construct: made in house; Q5VAN0 residues 43-301 (residue 44 deleted) with C-terminal 6-His; also called cynomolgus monkey CD38-C-His; recombinant cynomolgus monkey CD38 protein

| Binder | Kd [nM] |
| --- | --- |
| B17 | 8.6 |
| B18 | 1.8 |
| B19 | 24.5 |
| B20 | 1.1 |
| B21 | 2.4 |
| B22 | 4.2 |
| B23 | 4.4 |
| B24 | 62.5 |
| B25 | 17.3 |
| B26 | 17.9 |
| B27 | 22.7 |
| B28 | 26.3 |
| B29 | 8.9 |
| B30 | 14.6 |
| B31 | 25 |
| B32 | 9.6 |

Each binder was assayed against T7, biotinylated recombinant cynomolgus monkey BCMA Fc fusion protein (Acrobiosystems BCA-C82F4) (cynomolgus monkey, UniProt A0A2K5UD97 1-53) (assay: SPR, Fab as analyte, biotin-captured cynomolgus BCMA-Fc).
T7 construct: bought protein; not shown: Fc of the bought fusion protein, not described
T7 sequence (A0A2K5UD97 entry or part of it): as above

| Binder | Kd [nM] |
| --- | --- |
| B1 | 0.97 |
| B2 | 0.51 |
| B3 | 0.857 |
| B4 | 0.915 |
| B5 | 0.615 |
| B6 | 0.964 |
| B7 | 1.19 |

Each binder was assayed against T8, recombinant human BCMA protein (Acrobiosystems BCA-H522y) (human, UniProt Q02223 1-54) (assay: SPR, Fab as analyte, immobilised human BCMA, 1:1 Langmuir).
T8 construct: bought protein
T8 sequence (looked up): T2 sequence (looked up)

| Binder | Kd [nM] |
| --- | --- |
| B33 | 214 |
| B34 | 318 |

Source: patent US20240132615A1 (ICHNOS SCIENCES, published 2024)
